Assay results taken from patent publication US20110271408A1.

Molecular target: HAB1 (PP2C used in the in vitro phosphatase activity assays) (UniProt Q9CAJ0)
Assay: cell-based or functional assay

Sequence of HAB1 (PP2C used in the in vitro phosphatase activity assays) (Q9CAJ0 23-511 limits assumed): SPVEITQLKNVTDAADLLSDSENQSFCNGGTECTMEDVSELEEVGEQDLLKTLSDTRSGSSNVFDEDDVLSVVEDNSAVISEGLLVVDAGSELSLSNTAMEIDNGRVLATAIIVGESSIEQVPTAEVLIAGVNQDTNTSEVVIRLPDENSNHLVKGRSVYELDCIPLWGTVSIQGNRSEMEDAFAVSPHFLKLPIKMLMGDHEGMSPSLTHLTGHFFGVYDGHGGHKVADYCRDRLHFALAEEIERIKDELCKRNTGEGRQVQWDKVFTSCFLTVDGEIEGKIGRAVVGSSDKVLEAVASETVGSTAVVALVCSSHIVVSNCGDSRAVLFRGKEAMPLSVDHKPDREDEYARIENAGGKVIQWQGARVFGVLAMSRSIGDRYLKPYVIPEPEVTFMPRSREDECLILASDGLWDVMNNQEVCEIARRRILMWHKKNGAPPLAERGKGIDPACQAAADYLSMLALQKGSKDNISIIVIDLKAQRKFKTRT

in vitro receptor assay (PP2C activity, 2:1 receptor to phosphatase); IC50 of fenhexamid: 400 nM
Substance: PYR1 K59R, Y120H, M158I triple mutant (recombinant protein) (from UniProt O49686 1-191) (receptor)
